The nanobody polyreactivity screen of Harvey et al. (2022)

assay: yeast display, Sf9 membrane polyspecificity reagent, FACS + sequencing; frameworks hold sequencing errors
Summary of the method: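 A nanobody's polyreactivity label depends on the gate it was sorted from. Yeast display cells were stained with 10% biotinylated, detergent-solubilized Sf9 membrane reagent for 1 hour at 4 °C, enriched on streptavidin microbeads and sorted by FACS. The low and high (top ~1%) gates were set on anti-HA fluorescence for expression and streptavidin fluorescence for reagent binding.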

| Sequence | polyreactivity (PSR sort gate) |
| --- | --- |
| QVQLLESGGGLVQAGGSLRLSCAASGTSAQEDWMGWYRQAPGKEREFVAAIGLGSHTNYADSLKGRFTISRDNAKNTVYLHMNSLKPEDTAVYYCAVSVWQYSDHVYRGQGTQVTVSS | low polyreactivity |
| QVQLLESGGGLVQAGGSLRLSCAAYGFIFVSNGMGWYRQAPGKEREFVASITSIGGSTYYADSVKGRFTISRDNAKNTVYLQMNSLKPEDTAVYYCAARDIALNAVGRPKEYNRDYWGQGTQVTVSS | low polyreactivity |
| QVQLLESGGGLVQAGGSLRLSCASSGRTFRQYVMVWYRQAPGKESELVAAITYSGGSTYFADSVKGRFTISRDNAKYSVYLQMNSLTPEDTAVYYCAARNGYCVGYWGQGTQVTVSS | high polyreactivity |
| QVQLLESGGGLVQAGGSLRLSCASSGSIFHTYAMGWYRPAPGKERELVAAISSGGRTYYADSVKGRFTISRDNAKNTVYLQMNSLKPEDTAVYYCAVRPRPGYYYWGQGTQVTVSS | high polyreactivity |
| QVQLLESGGGLVQAGRSLRLSCAASGRTFRIYAMGWYRQAPGKEREEVAAITRSSGSTFYADSVKGRFTISRDNAKNTVYLQMNSLKPEDTAVYYCAAEYFEWWVTYDYWGQGTQVTVSS | high polyreactivity |
| QVQLLESGGGLVQAGVSLRLRCAPSGGTHKYYTMALYRQAPGKERELDATIRWYGDSTSYADSVKGRFTISRDNAKNTVYLQMNSQNPEDTAVYSCNADYAWYQRKSTVEYDYWVQGTQVTVSS | low polyreactivity |
| QVQLLESGGRLVQAGGSLRLSCAASGFTFGVNAMGWYRQAPGKERELVAAITSRGGSTYYADSVKGRFTISRDNAKNTVYLQMNSLKPEDTAVYYCAALGRGYFYGYRYDHWGQGTQVSVSS | high polyreactivity |
| QVQLLESGVGLVQAGGSLRLSSAASGRNFQQNAMAWYRQAPGKERELVAAINSRGGRTYYADSVKGRFTISRDNAKNTVYLQMNSLKPEDTAVYYCGAYFRNYRSYYYWGQGTQVTVSS | high polyreactivity |
| QVQLLESRGGLVQAGGSLRLSCAASGSIFYIYAIGWYRQAPGKEREFVAAIRQSDGRTYYADSVKGRFTISRDNAKNTVYLQRTSLNPEDTAVYYCAAQYPVNYIWGYNDWGQGTQVTVSS | high polyreactivity |
| QVQLLESVGGLVQAGGSLRISCAASGIIFKSYAMGWYRQAPGKERELVAAISSGGSTYYVDSVKGRFTISRDNAKNTVYLQMNSLKPEDTAVYYCAAYGKYQGYGHWGQGTQVTVSS | high polyreactivity |
| QVQLLESVGGLVQAGGSLRLSSMASGSILGDRMSWYRHAPGKEHELVATIYDGGITYYADSMKGRFTISRDNAKNTVYLQMNSLRPEDSAVYYCGASFEGYRYHVYCGQGTQVTVSS | low polyreactivity |
| QVQLLETCGGLVHAGCTLRLSCAPSRSTFRYNDMGRYRQAPGKERELDASISWSGGDTYYADSVKGRFTISRDNAKNTVYLQMNSLKPEDTAVYYCDKGNIWISRLMDDWGQGTQVTVSS | low polyreactivity |
| QVQLLETGGGLVQAGGSLRLSCAASGIPFDIYTMGWYIQAPGKERELVAASSYSGGTTYYADSVKGRFTISRDNAKNTVYLQMISLKPEDTAVYYCAAYEGTYFTEVDYWGQGTQVTVSS | low polyreactivity |
| QVQLLETGGGLVQAGGSLRLSCAASGSTFTIYAMGLYRQAPGKEMELVAVITRGSTNYADSVKGRFTISRDNAKNTVYLQMYSLKPEDSAVYYCNARRYGKVVRSRYNYWGQGTQVTVSS | high polyreactivity |
| QVQLQDSGGGLVQAGGSLRLICAASVTIFSYSDLGWYRQAPGKERKFVAGIGFGSNSNFADSVRGRFTISRDNAKNTVYLQMNSLKPEDTAVYYCAAVWFDYSTHRYWGQGTKVTVSS | high polyreactivity |
| QVQLQDSGGVMVLACGSLRLSCAESGYISWSFTMGWYRKAPGKEREFVAGITYGGITYYADSVKGRFTISRDNAKNSVYLQMNRLKPEDTAVYYCAAPQSYPYVYVYWGHGTQVTVSS | high polyreactivity |
| QVQLQEGGGLVQAGGSLRLSCPASGYISSRPAMGCYRQAPGKERAFVATIADGTSTYYADSVKCRFTISRDNAKNTVYLQMNSLKPEDTEVYYCAAAYNTEFYLSYWGQGTQVTVSS | high polyreactivity |
| QVQLQERGGALVQAGGSLRLICAATGNITVTGFMGWYRQSPGKERELVASIAIGGTTYYADSVKGRFSISRDNAKNTVYLQRNSLKQEDTAVSYGAARYLYYAYSYWGQGTQVTVSS | low polyreactivity |
| QVQLQERGGGLVQAGGDLRLSCAASGNIFRDYIMGWYRQAPGKEREFVAGIDRGANTNYADSVKGRFTISRDNAKNTVYLQMNSLKPEDTAVYYCAVHTAIVPDFIYWGQGTQVTVSS | low polyreactivity |
| QVQLQERGGGLVQAGGRLRLSCMASGSILGDRMSWYRQAPGKEHELVATIYDGGITYYADSMKVRFTISRDNANNTVDLQMKSQRPEDTAVYFCGASFEGYRYHVFCGQGTQVTVSS | low polyreactivity |
| QVQLQERGGGLVQAGGTLRLSCAASGSFSADEDMGWYRQAQGKEREFVAGISVGGNTNYADSVKGRFTISRENAKNTVYLQINSLKPEDTAVYYCAVLQDVYDALDYWAQGTQVTVSS | high polyreactivity |
| QVQLQERGGGLVQARGSLRLSCAASGNISYRTNMGWYRPAPGKERELVASIGGGTTNYADSVKGRFTISRDNAKKTVYLQMNSLKPVDTAVYYCAVVGTTQFRHRYWGQGTQVTASS | high polyreactivity |
| QVQLQERGGRLVQAGGSLRLSCAASGSIFTQATMGCDRQAPGKERELVAAINFGSSTYYADSVKGRFTISRDNAKSTVYLQMNSLKPEDTAVYYCAVRALWYDFHDYWGQGTQVTVSS | high polyreactivity |
| QVQLQERGSGLVQAGGSLRLTCAESGAIFPAYLMGWYRQPPGKERELVAGISYGSITYCADSVKGRFNIIRDNAKNTVYLQMNSLKPEDTAVKYCAVWRPGGDEYYYWGQGTQVTVSS | low polyreactivity |
| QVQLQERSGGLVQAGGSLRLSCAASGYIFNNVNMGWYSQSPGKEREFVAAVGSGSSTNYADSVKGRFTISRDNTKNTGYLHMNSLKPEDTAVYYCNAVRRTGGHGDYWGLGTQVTVSS | high polyreactivity |
| QVQLQESAGGLVQAGGSLRLRCSASGYISCDASKGWYRQAPGKERELAASITKGSSTNYADSVKGRFTIRDNAKNSVNLQMNSLKPEDTAVCYCAVTYPYWGDYTYWGQGTQVTVSS | low polyreactivity |
| QVQLQESCGRLVQAGGILRLSCAACGNIFPSAVMGWYRQALGTEREFVATLNSGSNPYYADSVKGRFTISRDNAKNTVYLQLNSLKLEDTAVYYCAAYYKLPAWHTYWGQGTQVTVSS | low polyreactivity |
| QVQLQESDGGLVQAGGSLRLICAASGSISPQYYMGWYRQAPGKEREFVAISKGTTTYYADSVKGRLTISRVNAKNTVYLQMNSLKPEDTAVYCCAAGRWLQKVHAYWDQGTQVTVSS | low polyreactivity |
| QVQLQESDGGLVQAGGSLRLSCAASGSISPQYYMGWYRQAPGKEREFVAISKGTTTYYADSVKGRLTISRVNAKNTVYLQMNSLKPEDTAVYCCAAGRWLQNVHAYWDQGTQVTVSS | low polyreactivity |
| QVQLQESFVGLVQAGGSLRLICAASGNIFPTDRMGWYRQAPGKELEFVATISHGGSTNYADSVKGRFTISRDNAKHTVYLQMNSLKPEDTAVYYCAVWSLGRWRNYYWGQGTQVTVIS | low polyreactivity |
